B1: POU domain, class 2, transcription factor 2, residues 200 to 269; numbered along this chain, P09086 (parent)
chain: LEELEQFARTFKQRRIKLGFTQGDVGLAMGKLYGNDFSQTTISRFEALNLSFKNMCKLKPLLEKWLNDAE
B2: Peroxisome proliferator-activated receptor delta, residues 71 to 145; numbered along this chain, Q03181 (parent)
chain: NMECRVCGDKASGFHYGVHACEGCKGFFRRTIRMKLEYEKCERSCKIQKKNRNKCQYCRFQKCLALGMSHNAIRF

± gives the uncertainty stated by the source.

The variants in one data set derive from B1. The experiment in a line: abundance fitness (aPCA) (normalised: wild type 0, dead -1); higher = more abundant; growth selection in yeast, the domain comes from the species named. The settings on record: Homo sapiens.
L62R: the abundance fitness is -0.968 ± 0.11.

Consider L62D, for which the abundance fitness is -0.999 ± 0.1.

As to L62E, the abundance fitness was -0.974 ± 0.13.

Consider L62P, for which the abundance fitness is -0.93 ± 0.27.

Take L62M: the abundance fitness was determined as 0.025 ± 0.05.

Consider L62T, for which the abundance fitness is -0.501 ± 0.1.

For the variant L62S, the abundance fitness was -0.804 ± 0.1.

Regarding L66T, the abundance fitness is -0.355 ± 0.081.

As for L66H, the abundance fitness is -0.526 ± 0.36.

L66V: the abundance fitness is 0.007 ± 0.045.

As to L66S, the abundance fitness was -0.238 ± 0.043.

For the variant L66A, the abundance fitness was determined as 0.001 ± 0.056.

For the variant L66Y, the abundance fitness is -0.047 ± 0.16.

With L66I, the abundance fitness amounted to 0.03 ± 0.11.

L66P: the abundance fitness is -0.719 ± 0.3.

Consider L66C, for which the abundance fitness came to 0.025 ± 0.084.

Turning to L66F, the abundance fitness is -0.27 ± 0.11.

Turning to L66D, the abundance fitness was -0.358 ± 0.18.

On to L66M, for which the abundance fitness was -0.027 ± 0.057.

L66G: the abundance fitness was -0.38 ± 0.046.

With L66E, the abundance fitness was -0.409 ± 0.077.

On to L66W, for which the abundance fitness is -0.232 ± 0.058.

For the variant L66R, the abundance fitness is -0.837 ± 0.079.

Regarding L66Q, the abundance fitness was -0.358 ± 0.076.

In the case of A69P, the abundance fitness is -0.15 ± 0.054.

For the variant A69V, the abundance fitness is -0.084 ± 0.057.

As for A69F, the abundance fitness is -0.179 ± 0.085.

For A69N, the abundance fitness came out at 0.128 ± 0.25.

Turning to A69I, the abundance fitness is 0.012 ± 0.11.

Take A69D: the abundance fitness is -0.233 ± 0.088.

Consider A69K, for which the abundance fitness is -0.105 ± 0.063.

In the case of A69L, the abundance fitness is -0.034 ± 0.062.

With A69S, the abundance fitness was -0.046 ± 0.051.

As for A69Y, the abundance fitness is -0.107 ± 0.093.

On to A69R, for which the abundance fitness was -0.007 ± 0.049.

For the variant A69E, the abundance fitness came to 0.009 ± 0.069.

For A69T, the abundance fitness worked out at 0.056 ± 0.069.

In the case of A69G, the abundance fitness is -0.126 ± 0.049.

Turning to L58K, the abundance fitness was -0.099 ± 0.06.

In the case of L58Y, the abundance fitness was -0.157 ± 0.06.

As for L58E, the abundance fitness is -0.478 ± 0.091.

As to L58N, the abundance fitness is -0.227 ± 0.11.

With L58F, the abundance fitness amounted to 0.005 ± 0.095.

With L58Q, the abundance fitness was -0.194 ± 0.08.

With L58A, the abundance fitness is -0.002 ± 0.04.

On to L58T, for which the abundance fitness was -0.049 ± 0.061.

In the case of L58H, the abundance fitness was -0.221 ± 0.11.

For L58I, the abundance fitness amounted to 0.057 ± 0.11.

With L58D, the abundance fitness was -0.576 ± 0.074.

Turning to L58C, the abundance fitness was -0.067 ± 0.063.

For the variant L58V, the abundance fitness is -0.005 ± 0.037.

With L58M, the abundance fitness is -0.011 ± 0.067.

Take L58S: the abundance fitness was -0.228 ± 0.054.

Regarding L58R, the abundance fitness is -0.259 ± 0.03.

With L58P, the abundance fitness was -0.747 ± 0.12.

L58W: the abundance fitness is -0.007 ± 0.038.

Consider L58G, for which the abundance fitness is -0.619 ± 0.042.

For the variant N67D, the abundance fitness is -0.221 ± 0.22.

For N67Y, the abundance fitness is -0.497 ± 0.38.

Turning to N54F, the abundance fitness was 0.018 ± 0.13.

Turning to N54I, the abundance fitness is -0.272 ± 0.12.

On to N54R, for which the abundance fitness is -0.005 ± 0.042.

For the variant N54E, the abundance fitness is 0.058 ± 0.088.

Turning to N54T, the abundance fitness came out at 0.023 ± 0.09.

N54C: the abundance fitness is -0.193 ± 0.09.

As for N54L, the abundance fitness is -0.097 ± 0.048.

For the variant N54K, the abundance fitness was -0.017 ± 0.059.

With N54P, the abundance fitness is -0.264 ± 0.059.

In the case of N54Q, the abundance fitness is 0.11 ± 0.15.

For N54A, the abundance fitness was -0.046 ± 0.044.

For the variant N54G, the abundance fitness is -0.017 ± 0.042.

Take N54Y: the abundance fitness is 0.09 ± 0.14.

For the variant N54D, the abundance fitness was 0.101 ± 0.1.

On to N54W, for which the abundance fitness is -0.081 ± 0.056.

As for N54M, the abundance fitness stood at 0.103 ± 0.067.

As for N54H, the abundance fitness came out at 0.091 ± 0.091.

N54S: the abundance fitness was found to be 0.042 ± 0.043.

As for N54V, the abundance fitness came to 0.032 ± 0.055.

The variants in the next data set derive from B2. Described as above. The settings on record: Homo sapiens.
Turning to F28H, the abundance fitness is -0.936 ± 0.33.

F28A: the abundance fitness was -0.603 ± 0.075.

As for F28Q, the abundance fitness was -0.808 ± 0.14.

As to F75K, the abundance fitness amounted to 0.238 ± 0.11.

Y16L: the abundance fitness was -0.269 ± 0.045.

For the variant Y16N, the abundance fitness is -0.032 ± 0.069.

For the variant L64P, the abundance fitness was -0.838 ± 0.12.

For G26F, the abundance fitness was -0.125 ± 0.083.

Take G26W: the abundance fitness is -0.174 ± 0.048.

For the variant C63G, the abundance fitness is -0.591 ± 0.06.

On to C63L, for which the abundance fitness is -0.547 ± 0.062.

C63I: the abundance fitness was -0.669 ± 0.17.

For the variant Y38C, the abundance fitness was -0.741 ± 0.15.

With K50C, the abundance fitness was -0.164 ± 0.066.

As to I32Y, the abundance fitness is -0.133 ± 0.082.

On to I32D, for which the abundance fitness is -0.5 ± 0.12.

On to I32G, for which the abundance fitness was -0.677 ± 0.078.

As for C45F, the abundance fitness was -0.647 ± 0.13.

On to C45Q, for which the abundance fitness was -0.884 ± 0.2.

Consider C45S, for which the abundance fitness was -0.743 ± 0.095.

Turning to R33V, the abundance fitness was found to be 0.072 ± 0.043.

R33W: the abundance fitness was -0.108 ± 0.061.

With R33E, the abundance fitness was found to be 0.18 ± 0.053.

Consider F14M, for which the abundance fitness is -0.059 ± 0.053.

In the case of F14H, the abundance fitness is -0.098 ± 0.077.

With K35E, the abundance fitness came to 0.063 ± 0.056.

In the case of C58E, the abundance fitness was -0.925 ± 0.12.

Consider G13V, for which the abundance fitness was -0.353 ± 0.049.

For K54M, the abundance fitness stood at 0.052 ± 0.052.

R74W: the abundance fitness is -0.084 ± 0.06.

As to R74P, the abundance fitness was 0.151 ± 0.047.

For the variant A20V, the abundance fitness was -0.077 ± 0.045.

As for E42S, the abundance fitness was -0.117 ± 0.04.

For the variant K40V, the abundance fitness is 0.026 ± 0.036.

As for V6N, the abundance fitness is -0.624 ± 0.17.

Consider L36K, for which the abundance fitness was -0.165 ± 0.075.

Consider L36Q, for which the abundance fitness is -0.222 ± 0.059.

On to M68Q, for which the abundance fitness is -0.668 ± 0.12.

Regarding M68C, the abundance fitness was -0.9 ± 0.17.

Consider M68N, for which the abundance fitness was -0.81 ± 0.37.

M2C: the abundance fitness was -0.064 ± 0.08.

As to K49S, the abundance fitness is -0.207 ± 0.41.

For the variant K49T, the abundance fitness worked out at 0.023 ± 0.18.

Consider K46A, for which the abundance fitness turned out to be 0.007 ± 0.034.

For the variant K46R, the abundance fitness was -0.037 ± 0.029.

Take E39T: the abundance fitness was -0.052 ± 0.045.

On to E39W, for which the abundance fitness was -0.518 ± 0.064.

E39H: the abundance fitness was -0.336 ± 0.1.

As for V18H, the abundance fitness is -0.764 ± 0.27.

With V18Y, the abundance fitness is -0.652 ± 0.14.

As to G8K, the abundance fitness was -0.563 ± 0.1.

As for G8V, the abundance fitness is -0.899 ± 0.093.

Regarding Y57L, the abundance fitness was -0.765 ± 0.12.

Turning to Y57R, the abundance fitness is -0.671 ± 0.069.

As to I47H, the abundance fitness is -0.589 ± 0.1.

Turning to N71R, the abundance fitness is -0.242 ± 0.036.

Regarding N71W, the abundance fitness was -0.362 ± 0.059.

For L66P, the abundance fitness is -0.681 ± 0.13.

With L66N, the abundance fitness is -0.014 ± 0.073.

With F60Y, the abundance fitness was -0.223 ± 0.11.

Consider D9C, for which the abundance fitness is -0.305 ± 0.075.

Turning to D9E, the abundance fitness was -0.154 ± 0.044.

In the case of D9M, the abundance fitness is -0.436 ± 0.086.

Turning to G17K, the abundance fitness is -0.861 ± 0.17.

With K25Q, the abundance fitness is -0.036 ± 0.049.

On to C21D, for which the abundance fitness is -0.875 ± 0.37.

On to R29P, for which the abundance fitness is -0.901 ± 0.13.

Consider R30D, for which the abundance fitness turned out to be 0.026 ± 0.065.

For R30Y, the abundance fitness is -0.056 ± 0.087.

Regarding I73E, the abundance fitness was determined as 0.288 ± 0.043.

Turning to E22M, the abundance fitness is -0.205 ± 0.062.

For the variant A65T, the abundance fitness is -0.073 ± 0.051.

For the variant A65D, the abundance fitness was found to be 0.092 ± 0.056.

For the variant T31I, the abundance fitness is -0.49 ± 0.22.

In the case of N1A, the abundance fitness was -0.179 ± 0.067.

As to N1K, the abundance fitness is -0.075 ± 0.073.

Take Q61K: the abundance fitness was -0.098 ± 0.056.

Take C41V: the abundance fitness was -0.645 ± 0.13.

Regarding C41L, the abundance fitness was -1.27 ± 0.34.

For N53W, the abundance fitness was -0.127 ± 0.048.

N53M: the abundance fitness was -0.067 ± 0.052.

N53Q: the abundance fitness was -0.152 ± 0.064.

With N53S, the abundance fitness is -0.005 ± 0.042.

In the case of G67H, the abundance fitness was -0.714 ± 0.23.

Consider S44M, for which the abundance fitness amounted to 0.028 ± 0.047.

With S44L, the abundance fitness was -0.038 ± 0.037.

Consider S12K, for which the abundance fitness is -0.248 ± 0.06.

Consider S12Y, for which the abundance fitness is -0.138 ± 0.072.

Take S12I: the abundance fitness is -0.121 ± 0.11.

For the origin of these results see the Human Domainome abundance scans (Beltran et al. 2025).
